Among the data in article PMC5759053 are FRET efficiency values, retold here.

The target in this test is Positive controls (Ci-M1; TRPV4-Ci, each with Ce-M1). Description: FRET or BRET. Background: Bioluminescence resonance energy transfer reports proximity on the nanometre scale.

cerulean-AQP4 M1, sequence (P55088 whole entry): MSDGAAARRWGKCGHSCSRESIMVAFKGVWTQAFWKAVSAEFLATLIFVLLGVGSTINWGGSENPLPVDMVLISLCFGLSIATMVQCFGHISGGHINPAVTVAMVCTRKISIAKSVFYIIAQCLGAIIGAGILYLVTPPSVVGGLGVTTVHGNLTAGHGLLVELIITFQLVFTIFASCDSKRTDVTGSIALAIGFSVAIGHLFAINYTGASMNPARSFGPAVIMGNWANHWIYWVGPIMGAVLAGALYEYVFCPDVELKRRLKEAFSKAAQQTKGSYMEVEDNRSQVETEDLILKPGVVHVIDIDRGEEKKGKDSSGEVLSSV

The substance “cerulean-AQP4 M1 (from UniProt P55088-1 1-323) (natural protein)” gave an FRET efficiency of 8 to 10%.
